This is an account of results in the nanobody polyreactivity screen of Harvey et al. (2022).

A short description of the series: yeast display, Sf9 membrane polyspecificity reagent, FACS + sequencing; frameworks hold sequencing errors. The method in brief: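 Using colony PCR, genes from sorted yeast display clones were amplified, then sequenced on MiSeq at 2 × 250 and filtered by CDR length. The clones had been stained with 10% biotinylated, detergent-solubilized Sf9 membrane reagent for 1 hour at 4 °C and sorted by FACS into low and high (top ~1%) gates on anti-HA and streptavidin fluorescence. Polyreactivity labels come from the gate of origin.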
For the sequence “QVQLVESGGGLVQAGGSLRLSCAASGSTFDVNAMGWYRQAPGKERELVAVITSGGSTNYADSVKGRFTISRDNAKNTVYLQMNRLKPEDTAVYYCAKDSRTLYDYWGQGTQVTVSS”, the “polyreactivity (PSR sort gate)” value is recorded as “low polyreactivity”. To “QVQLVESGGGLVQAGGSLRLSCAASGSTFDVYAMGWYRQAPGKERELVAAIRSSGGSTFYADSVKGRFTISRDNAKNIVYLQMNSLKPEDTAVYYCAARSFVVSGYNKYYEYGYWGQGTQVTVSS” belongs “low polyreactivity”; to “QVQLVESGGGLVQAGGSLRLSCAASGSTFDVYAMGWYRQAPGKERELVAAITWDGDRTYYADSVKGRFTISRDNAKNTVYLQMNSLKPEDTAVYYCNVDTYVEYPHDYWGQGTQVTVSS”, “low polyreactivity”; to “QVQLVESGGGLVQAGGSLRLSCAASGSTFDWYAMGWYRQAPGKERELVAAISRGSRTYYADSVKGRFTISRDNAKNTVYLQKNSLKPEDTAVYYCARDKPTSYPDYYYWGQGTQVTVSS”, “high polyreactivity”. As for “QVQLVESGGGLVQAGGSLRLSCAASGSTFDWYAMGWYRQAPGKERELVARIRWSGGSTYYADSVKGRFTISRDNAKNTVYLQMNSLKPEDTAVYYCAARTQTWPQYGYWGQGTQVTVSS”, the entry is “high polyreactivity”; as for “QVQLVESGGGLVQAGGSLRLSCAASGSTFDWYAMGWYRQATGKETELVAAISWSDTSTYYADSVKGRFTISRDNAKNTVYLKMNSLKPEDTAVYYCNDEALYYYDSYDYWGQGTQVTVSS”, “high polyreactivity”; as for “QVQLVESGGGLVQAGGSLRLSCAASGSTFDYNAMGWYRQAPGKERELVAAITSTGGNTYYADSVKGRFTISRDHAKNTDYLQMNSLKPEDTAVYYCNKDVARYPYGNFDYWGQGTQVTVSS”, “low polyreactivity”. To “QVQLVESGGGLVQAGGSLRLSCAASGSTFDYNAMGWYRQAPGKERELVADITGSGASTSYADSVKGRFTISRDNAKNTVYLQMNSLKPEDTAVYFCAADQTPVGQVYYGTLSIRDYWGQGTQVTVSS” belongs “low polyreactivity”; to “QVQLVESGGGLVQAGGSLRLSCAASGSTFDYNAMGWYRQAPGTERELVAAISRGGNTYYADSVKGRFTISRDNAKNTVYLQMNSLKPEDTAVYYCAKDSYGSYRFVRKRQKAYGYWGQGTQVTVSS”, “low polyreactivity”. As for “QVQLVESGGGLVQAGGSLRLSCAASGSTFDYYAMGWDRQAPGKERELVAAIRWSSGRTYYADSVKGRFTISRDNAKNTVYLQMHSLKPEDTAVYYCASAGHRGQGGPRYNYWGQGTQVTVSS”, the “polyreactivity (PSR sort gate)” value is “high polyreactivity”.

As for “QVQLVESGGGLVQAGGSLRLSCAASGSTFDYYAMGWYRQAPGKERELVAAISRTGGRTYYADSVKGRFTISRDNAKNTVYLQMNSLKPEDTAVYYCATRNGRQYSVSYRYYYWGQGTQVTVSS”, the “polyreactivity (PSR sort gate)” value is on record as “low polyreactivity”. For “QVQLVESGGGLVQAGGSLRLSCAASGSTFDYYAMGWYRQAPGKERELVATISYSDGTTYYADSVKGRFTISRDNAKNTVYLQMNSLKPEDTAVYYCAADTYVYEEQNVWRMDYWGQGTQVTVSS”, the “polyreactivity (PSR sort gate)” value is listed as “low polyreactivity”. As for “QVQLVESGGGLVQAGGSLRLSCAASGSTFDYYAMGWYRQAPGKERELVAVISSSGGSTYYADSVKGRFTISRDNAKNTVYLQMNSLKPEDTAVYYCAALYRNYGSSYAYYYWGQGTQVTVSS”, the entry is “low polyreactivity”; as for “QVQLVESGGGLVQAGGSLRLSCAASGSTFDYYDMGWYRQAPGKERELVATITSGGSTNYADSVKGRFTISRDNAKNTVYLQMNSLKPEDTAVYYCAADIGGDGEGYDYWGQGTQVTVSS”, “low polyreactivity”. To “QVQLVESGGGLVQAGGSLRLSCAASGSTFDYYTMGWYRQAPGKERELVAAISYSGSRTYYADSVKGRFTISRDNAKNTVYLQMNSLKPEDTAVYYCAAVYRAKYGYWGQGTQVTVSS” belongs “high polyreactivity”; to “QVQLVESGGGLVQAGGSLRLSCAASGSTFDYYTMGWYRQAPGKERELVAAITSGGSTYYADSVKGRFTISRDNAKNTVFLQMNSLKPEDTAVYYCAAGYIWFRKFQFDYWGQGTQVTVSS”, “high polyreactivity”. Regarding “QVQLVESGGGLVQAGGSLRLSCAASGSTFEANAMGRYRQAPGKERELVAVITWTGGSTYYADSVKGRFTISRDNAKNTVYLQMNSLKPEDTAVYYCAADGVVPGRFFWPAHEYDYWGQGTQVTVSS”, the “polyreactivity (PSR sort gate)” value is “low polyreactivity”.

As for “QVQLVESGGGLVQAGGSLRLSCAASGSTFEANAMGWYRQAPGKERELVAVITWTGGSTYYADSVKGRFTISRDNAKNTVYLQMNSLKPEDTAVYYCAADGVVPGRFFWPAHEYDYWGQGTQVTVSS”, the “polyreactivity (PSR sort gate)” value is given as “low polyreactivity”.

Take “QVQLVESGGGLVQAGGSLRLSCAASGSTFEDNAMGWYRQAPGKERELVAAITTGGGSTYYADSVKGRFTISRDNAKNTVYLQMNSLKPEDTAVYYCAVYRYYGFSLWYDYWGQGTLVTVSS”: the “polyreactivity (PSR sort gate)” value is listed as “low polyreactivity”.

On to “QVQLVESGGGLVQAGGSLRLSCAASGSTFEFNDMGWYRQAPGKERELVASIRHSDGSTYYADSVKGRFTISRDNAKNTVYLQMNSLKPEDTAVYYCNKAFQWSGGQVSYDYWGQGTQVTVSS”, for which the “polyreactivity (PSR sort gate)” value was “low polyreactivity”. On to “QVQLVESGGGLVQAGGSLRLSCAASGSTFEQYAMGWYRQAPGKERELVAAINRGGSTYYADSVKGRFTISRDNAKNTVYLQMKSLKPEDTAVYYCAVYAFVRYRSRYGYWGQGTQVTVSS”, for which the “polyreactivity (PSR sort gate)” value was “high polyreactivity”. Regarding “QVQLVESGGGLVQAGGSLRLSCAASGSTFERYAMGWYRQAPGKKGSWLPYADSVKGRFTISRDNAKNTVYLQMNSLKPEDTAVYYCNAERYSPTLNLDRGWEYDYWGQGTQVTVSS”, the “polyreactivity (PSR sort gate)” value was “low polyreactivity”.

With “QVQLVESGGGLVQAGGSLRLSCAASGSTFERYVMGWYSQAPGKARELVADINSGGSTNYADSVKGRFTISRDNAKNTVYLQMNSLKPEDTAVYYCAAKRRYYGPWSRMGYDYWGQGTQVTVSS”, the “polyreactivity (PSR sort gate)” value is listed as “low polyreactivity”. Turning to “QVQLVESGGGLVQAGGSLRLSCAASGSTFESNAMGWNRQAPGKERDLVASISGSGGSTFYADSVKGSFTISRDNAKNTVYLQMNILKPEDTGVYYCAAYKEPYYEEYGYWGQGTQVTVSS”, the “polyreactivity (PSR sort gate)” value is recorded as “low polyreactivity”. As for “QVQLVESGGGLVQAGGSLRLSCAASGSTFESNAMGWYRQAPGKERELVAAISRGGNTYYADSVKGRFTISRDNAKNTVYLQMNSLKPEDTAVYYCAADGAGWLDYGYWGQGTQVTVSS”, the entry is “low polyreactivity”. In the case of “QVQLVESGGGLVQAGGSLRLSCAASGSTFESNTMGWYIQAPGKERELVAAISYSGGRTYYADSVKGRFTISRDNAKNTVYLQMNSLKPEDTAVYYCAARTFRISRMDYWGQGTQVTESS”, the “polyreactivity (PSR sort gate)” value is given as “high polyreactivity”. To “QVQLVESGGGLVQAGGSLRLSCAASGSTFESYAMVWYRQAPGKERELVAAISRRGGRTYYADSVKGRFTISRDNAKNTVYLQMNSLKPEDTAVYYCATDSSYYGSDDYWGQGTQVTVSS” belongs “high polyreactivity”. Consider “QVQLVESGGGLVQAGGSLRLSCAASGSTFEVNAMGWYRQAPGKERELVASITDGGITNYADSVKVRFTISRDNAKNTVYLQMNSLKPEDTAVYYCAAVGWYYSYYYFWGGYWGQGTQVTVSS”, for which the “polyreactivity (PSR sort gate)” value is “high polyreactivity”. To “QVQLVESGGGLVQAGGSLRLSCAASGSTFEWNAMGWYRQAPGKERELVAAISGTGGNTYYADSVKGRFTISRYNAKNTVYLQMNSLKPEDTAVYYCNTDYGEYSSWDLQWWYIPYDYWGQGTQVTVSS” belongs “low polyreactivity”; to “QVQLVESGGGLVQAGGSLRLSCAASGSTFEYNAMRWYRQAPGKERELVAAITWSVGSTYYADSVKGRFTISRDNAKNSVSIQMNSLKPEDTAVDYCARVPSAFARWHTYDYWGQGTQVTVSS”, “low polyreactivity”.
